Earlier results in article PMC11381289.
Where two headings read alike, the source gives them in different places.

Tests used:
TL (Mus musculus) [1] = biological target: TL (Mus musculus) (UniProt P14432)
TL (Mus musculus) [2] = biological target: TL (Mus musculus) (UniProt P14432); remark: listed apart in the source

Sequence of UniProt P14432 (P14432 27-314): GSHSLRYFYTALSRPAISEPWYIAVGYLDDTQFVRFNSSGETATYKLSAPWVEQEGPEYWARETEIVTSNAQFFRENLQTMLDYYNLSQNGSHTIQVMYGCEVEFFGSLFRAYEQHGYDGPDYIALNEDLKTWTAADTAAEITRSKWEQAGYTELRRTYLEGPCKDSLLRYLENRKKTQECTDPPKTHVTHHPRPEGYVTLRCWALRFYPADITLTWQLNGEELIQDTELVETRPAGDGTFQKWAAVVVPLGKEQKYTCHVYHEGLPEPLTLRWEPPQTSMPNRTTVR

CD8αα (from UniProt P01731)
Kd (TL (Mus musculus) [1]): 12 µM

CD8αβ (from UniProt P01731)
Kd (TL (Mus musculus) [2]): > 90 µM
